Values quoted from earlier work in PMC8471248.

Target: cell-surface GRP78 (Homo sapiens) (UniProt P11021)
Sequence of UniProt P11021 (P11021 19-654): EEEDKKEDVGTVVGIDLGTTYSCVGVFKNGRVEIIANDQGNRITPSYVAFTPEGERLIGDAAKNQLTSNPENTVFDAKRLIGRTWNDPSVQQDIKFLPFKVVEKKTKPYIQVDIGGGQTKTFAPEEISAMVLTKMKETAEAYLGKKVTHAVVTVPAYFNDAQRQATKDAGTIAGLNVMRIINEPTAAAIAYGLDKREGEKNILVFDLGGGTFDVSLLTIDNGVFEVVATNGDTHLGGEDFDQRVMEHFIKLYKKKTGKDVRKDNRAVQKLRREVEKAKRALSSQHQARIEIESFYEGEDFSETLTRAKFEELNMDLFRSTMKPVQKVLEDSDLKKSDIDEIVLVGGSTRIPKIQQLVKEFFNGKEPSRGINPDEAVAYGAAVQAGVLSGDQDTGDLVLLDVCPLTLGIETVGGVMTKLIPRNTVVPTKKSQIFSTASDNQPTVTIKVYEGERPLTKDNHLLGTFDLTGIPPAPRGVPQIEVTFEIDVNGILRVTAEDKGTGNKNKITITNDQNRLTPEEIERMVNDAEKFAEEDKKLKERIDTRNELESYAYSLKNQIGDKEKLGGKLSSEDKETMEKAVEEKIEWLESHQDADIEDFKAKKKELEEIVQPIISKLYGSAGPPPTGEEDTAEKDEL

- Kd: 0.1 nM
Substance: Activated alpha 2-macroglobulin (from UniProt P01023)
